Laboratory results taken from article PMC5736629, “Allosteric modulation of protein-protein interactions by individual lipid binding events” (Nature Communications, 2017).

T1: ammonium channel (AmtB) from Escherichia coli (Escherichia coli, UniProt P69681 23-428)
T1 construct: Ammonium channel AmtB, Escherichia coli, wild-type; Expressed as pelB signal peptide - 10x His - MBP - TEV site - AmtB from pET15b; tagless after TEV cleavage; also called ammonia channel; AmtB wild-type; source: E. coli C41(DE3), purified (membranes extracted with octyl glucoside, HisTrap, TEV cleavage, reverse HisTrap); for native MS co-purified with stGlnK (StrepTrap, Superdex 200 Increase); …
T1 sequence: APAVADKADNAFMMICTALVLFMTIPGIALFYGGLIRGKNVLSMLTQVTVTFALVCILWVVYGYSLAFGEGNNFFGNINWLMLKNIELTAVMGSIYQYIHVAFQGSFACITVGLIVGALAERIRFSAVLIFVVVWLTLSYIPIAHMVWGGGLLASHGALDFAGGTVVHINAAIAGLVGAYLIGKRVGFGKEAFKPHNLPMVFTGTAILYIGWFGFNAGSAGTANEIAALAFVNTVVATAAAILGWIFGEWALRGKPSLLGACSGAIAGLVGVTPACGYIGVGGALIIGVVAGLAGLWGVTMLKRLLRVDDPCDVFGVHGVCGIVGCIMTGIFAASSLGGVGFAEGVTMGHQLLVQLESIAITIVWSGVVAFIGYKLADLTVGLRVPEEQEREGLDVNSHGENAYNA

T2: ammonium channel (AmtB) from Escherichia coli, wild-type, tagless (E. coli, UniProt P69681 23-428)
T2 construct: AmtB, ammonium channel, Escherichia coli, wild-type; expressed behind a pelB secretion signal, 10x His-tag, MBP and a TEV site, all removed; also called ammonia channel; source: E. coli C41(DE3), extracted from membranes with octyl glucoside, purified (HisTrap, TEV cleavage, reverse HisTrap); not shown: 10x His-tag, N-terminal, cleaved
T2 sequence: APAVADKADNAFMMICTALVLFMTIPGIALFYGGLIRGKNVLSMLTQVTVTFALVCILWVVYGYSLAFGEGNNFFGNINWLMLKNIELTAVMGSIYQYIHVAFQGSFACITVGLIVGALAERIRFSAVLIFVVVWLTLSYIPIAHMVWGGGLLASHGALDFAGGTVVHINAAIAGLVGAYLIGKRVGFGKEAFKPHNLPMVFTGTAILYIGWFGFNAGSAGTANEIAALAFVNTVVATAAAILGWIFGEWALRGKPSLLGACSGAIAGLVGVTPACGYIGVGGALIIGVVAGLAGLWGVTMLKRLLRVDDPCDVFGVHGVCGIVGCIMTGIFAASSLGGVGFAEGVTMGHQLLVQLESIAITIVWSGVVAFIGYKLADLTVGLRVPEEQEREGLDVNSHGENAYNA


Legend:
Settings in all cases: both partners purified
[1] = molecular target: T1, ammonium channel (AmtB) from …; assay: native MS; AmtB-GlnK at 2 uM titrated with POPA; 200 mM ammonium acetate pH 7.4, 0.5% C8E4, 50 uM ADP, 298 K; global fit of the equilibrium-coupled AmtB-GlnK-lipid binding model; apparent constants
[2] = molecular target: T1, ammonium channel (AmtB) from …; assay: native MS; AmtB-GlnK at 2 uM titrated with POPC; 200 mM ammonium acetate pH 7.4, 0.5% C8E4, 50 uM ADP, 298 K; global fit of the equilibrium-coupled AmtB-GlnK-lipid binding model; apparent constants
[3] = molecular target: T1, ammonium channel (AmtB) from …; assay: native MS; AmtB-GlnK at 2 uM titrated with POPE; 200 mM ammonium acetate pH 7.4, 0.5% C8E4, 50 uM ADP, 298 K; global fit of the equilibrium-coupled AmtB-GlnK-lipid binding model; apparent constants
[4] = molecular target: T1, ammonium channel (AmtB) from …; assay: native MS; AmtB-GlnK at 2 uM titrated with POPG; 200 mM ammonium acetate pH 7.4, 0.5% C8E4, 50 uM ADP, 298 K; global fit of the equilibrium-coupled AmtB-GlnK-lipid binding model; apparent constants
[5] = molecular target: T1, ammonium channel (AmtB) from …; assay: native MS; AmtB-GlnK at 2 uM titrated with POPS; 200 mM ammonium acetate pH 7.4, 0.5% C8E4, 50 uM ADP, 298 K; global fit of the equilibrium-coupled AmtB-GlnK-lipid binding model; apparent constants
[6] = molecular target: T1, ammonium channel (AmtB) from …; assay: native MS; AmtB-GlnK at 2 uM titrated with DLPG (12:0); 200 mM ammonium acetate pH 7.4, 0.5% C8E4, 50 uM ADP; global fit of the equilibrium-coupled AmtB-GlnK-lipid binding model; apparent constants
[7] = molecular target: T1, ammonium channel (AmtB) from …; assay: native MS; AmtB-GlnK at 2 uM titrated with DMPG (14:0); 200 mM ammonium acetate pH 7.4, 0.5% C8E4, 50 uM ADP; global fit of the equilibrium-coupled AmtB-GlnK-lipid binding model; apparent constants
[8] = molecular target: T1, ammonium channel (AmtB) from …; assay: native MS; AmtB-GlnK at 2 uM titrated with DPPG (16:0); 200 mM ammonium acetate pH 7.4, 0.5% C8E4, 50 uM ADP; global fit of the equilibrium-coupled AmtB-GlnK-lipid binding model; apparent constants
[9] = molecular target: T1, ammonium channel (AmtB) from …; assay: native MS; AmtB-GlnK at 2 uM titrated with DOPE (cis, 18:1); 200 mM ammonium acetate pH 7.4, 0.5% C8E4, 50 uM ADP; global fit of the equilibrium-coupled AmtB-GlnK-lipid binding model; apparent constants
[10] = molecular target: T1, ammonium channel (AmtB) from …; assay: native MS; AmtB-GlnK at 2 uM titrated with DOPE (trans, 18:1); 200 mM ammonium acetate pH 7.4, 0.5% C8E4, 50 uM ADP; global fit of the equilibrium-coupled AmtB-GlnK-lipid binding model; apparent constants
[11] = molecular target: T1, ammonium channel (AmtB) from …; assay: native MS; AmtB-GlnK at 2 uM titrated with SOPE (18:0-18:1, cis); 200 mM ammonium acetate pH 7.4, 0.5% C8E4, 50 uM ADP; global fit of the equilibrium-coupled AmtB-GlnK-lipid binding model; apparent constants
[12] = molecular target: T1, ammonium channel (AmtB) from …; assay: native MS; AmtB-GlnK at 2 uM titrated with TOCDL (cardiolipin); 200 mM ammonium acetate pH 7.4, 0.5% C8E4, 50 uM ADP, 298 K; global fit of the equilibrium-coupled AmtB-GlnK-lipid binding model; apparent constants
[13] = molecular target: T2, ammonium channel (AmtB) from …; assay: native MS; ADP titration series; at and above 100 uM ADP (asymptote); AmtB-GlnK 2 uM, 200 mM ammonium acetate pH 7.4, 0.5% C8E4

Row | Binder | Kd [1] | Kd [2] | Kd [3] | Kd [4] | Kd [5] | Kd [6] | Kd [7] | Kd [8] | Kd [9] | Kd [10] | Kd [11] | Kd [12] | Kd [13]
1 | Strep-tag II-tagged GlnK (stGlnK), Y51F (natural protein, Escherichia coli, Nitrogen regulatory protein GlnK, Escherichia coli; Expressed from pET28b; Y51F prevents uridylylation by GlnD; source: E. coli ArcticExpress (DE3) RIL, purified (StrepTrap HP, Superdex 75)) MKLVTVIIKPFKLEDVREALSSIGIQGLTVTEVKGFGRQKGHAELYRGAEFSVNFLPKVKIDVAIADDQLDEVIDIVSKAAYTGKIGDGKIFVAELQRVIRIRTGEADEAAL | 517 nM | 486 nM | 504 nM | 540 nM | 500 nM | 522 nM | 551 nM | 521 nM | 517 nM | 556 nM | 528 nM | 517 nM | 
2 | Strep-tag II-tagged GlnK (stGlnK), Y51F (natural protein, E. coli, GlnK, nitrogen regulatory protein (PII-2), Escherichia coli, with the point mutation Y51F that prevents uridylylation by GlnD; source: E. coli ArcticExpress (DE3) RIL, purified (StrepTrap, Superdex 75)) MKLVTVIIKPFKLEDVREALSSIGIQGLTVTEVKGFGRQKGHAELYRGAEFSVNFLPKVKIDVAIADDQLDEVIDIVSKAAYTGKIGDGKIFVAELQRVIRIRTGEADEAAL |  |  |  |  |  |  |  |  |  |  |  |  | ~80 nM
